Reference: PMC6341091

Legend:
[1] = western blot of total FOXP3, HEK 293; settings: control: no OGT/OGA overexpression or no inhibitor
[2] = CHX chase, HEK 293, western blot; settings: control: no OGT/OGA overexpression or no inhibitor
[3] = retroviral transduction of CD4+CD25- T cells, FOXP3 MFI; settings: glycan lost; control: wild-type FOXP3
[4] = CHX chase, HEK 293, OGT overexpression, western blot; settings: glycan lost; control: wild-type FOXP3
[5] = not described in main text (Supplementary Fig. 2F); settings: glycan lost; control: wild-type FOXP3

Protein	expression_or_secretion ([1]; glycan gained)	degradation_or_half_life ([2]; glycan gained)	expression_or_secretion ([1]; glycan lost)	degradation_or_half_life ([2]; glycan lost)	other results
FOXP3: TMG (protein) parent chain: MPNPRPAKPMAPSLALGPSPGVLPSWKTAPKGSELLGTRGSGGPFQGRDLRSGAHTSSSLNPLPPSQLQLPTVPLVMVAPSGARLGPSPHLQALLQDRPHFMHQLSTVDAHAQTPVLQVRPLDNPAMISLPPPSAATGVFSLKARPGLPPGINVASLEWVSREPALLCTFPRSGTPRKDSNLLAAPQGSYPLLANGVCKWPGCEKVFEEPEEFLKHCQADHLLDEKGKAQCLLQREVVQSLEQQLELEKEKLGAMQAHLAGKMALAKAPSVASMDKSSCCIVATSTQGSVLPAWSAPREAPDGGLFAVRRHLWGSHGNSSFPEFFHNMDYFKYHNMRPPFTYATLIRWAILEAPERQRTLNEIYHWFTRMFAYFRNHPATWKNAIRHNLSLHKCFVRVESEKGAVWTVDEFEFRKKRSQRPNKCSNPCP	increases	increases			
FOXP3: OGA overexpression (protein) parent chain: MPNPRPAKPMAPSLALGPSPGVLPSWKTAPKGSELLGTRGSGGPFQGRDLRSGAHTSSSLNPLPPSQLQLPTVPLVMVAPSGARLGPSPHLQALLQDRPHFMHQLSTVDAHAQTPVLQVRPLDNPAMISLPPPSAATGVFSLKARPGLPPGINVASLEWVSREPALLCTFPRSGTPRKDSNLLAAPQGSYPLLANGVCKWPGCEKVFEEPEEFLKHCQADHLLDEKGKAQCLLQREVVQSLEQQLELEKEKLGAMQAHLAGKMALAKAPSVASMDKSSCCIVATSTQGSVLPAWSAPREAPDGGLFAVRRHLWGSHGNSSFPEFFHNMDYFKYHNMRPPFTYATLIRWAILEAPERQRTLNEIYHWFTRMFAYFRNHPATWKNAIRHNLSLHKCFVRVESEKGAVWTVDEFEFRKKRSQRPNKCSNPCP			decreases	decreases	
FOXP3: ST045849 (protein) parent chain: MPNPRPAKPMAPSLALGPSPGVLPSWKTAPKGSELLGTRGSGGPFQGRDLRSGAHTSSSLNPLPPSQLQLPTVPLVMVAPSGARLGPSPHLQALLQDRPHFMHQLSTVDAHAQTPVLQVRPLDNPAMISLPPPSAATGVFSLKARPGLPPGINVASLEWVSREPALLCTFPRSGTPRKDSNLLAAPQGSYPLLANGVCKWPGCEKVFEEPEEFLKHCQADHLLDEKGKAQCLLQREVVQSLEQQLELEKEKLGAMQAHLAGKMALAKAPSVASMDKSSCCIVATSTQGSVLPAWSAPREAPDGGLFAVRRHLWGSHGNSSFPEFFHNMDYFKYHNMRPPFTYATLIRWAILEAPERQRTLNEIYHWFTRMFAYFRNHPATWKNAIRHNLSLHKCFVRVESEKGAVWTVDEFEFRKKRSQRPNKCSNPCP			decreases	decreases	
FOXP3: FOXP3-5A (protein) parent chain: MPNPRPAKPMAPSLALGPSPGVLPSWKTAPKGSELLGTRGSGGPFQGRDLRSGAHTSSSLNPLPPSQLQLPTVPLVMVAPSGARLGPSPHLQALLQDRPHFMHQLSTVDAHAQTPVLQVRPLDNPAMISLPPPSAATGVFSLKARPGLPPGINVASLEWVSREPALLCTFPRSGTPRKDSNLLAAPQGSYPLLANGVCKWPGCEKVFEEPEEFLKHCQADHLLDEKGKAQCLLQREVVQSLEQQLELEKEKLGAMQAHLAGKMALAKAPSVASMDKSSCCIVATSTQGSVLPAWSAPREAPDGGLFAVRRHLWGSHGNSSFPEFFHNMDYFKYHNMRPPFTYATLIRWAILEAPERQRTLNEIYHWFTRMFAYFRNHPATWKNAIRHNLSLHKCFVRVESEKGAVWTVDEFEFRKKRSQRPNKCSNPCP					expression_or_secretion [3]: decreases; degradation_or_half_life [4]: decreases; other: OGT-induced transcriptional suppression activity [5]: abolishes
FOXP3: OGT overexpression (protein) parent chain: MPNPRPAKPMAPSLALGPSPGVLPSWKTAPKGSELLGTRGSGGPFQGRDLRSGAHTSSSLNPLPPSQLQLPTVPLVMVAPSGARLGPSPHLQALLQDRPHFMHQLSTVDAHAQTPVLQVRPLDNPAMISLPPPSAATGVFSLKARPGLPPGINVASLEWVSREPALLCTFPRSGTPRKDSNLLAAPQGSYPLLANGVCKWPGCEKVFEEPEEFLKHCQADHLLDEKGKAQCLLQREVVQSLEQQLELEKEKLGAMQAHLAGKMALAKAPSVASMDKSSCCIVATSTQGSVLPAWSAPREAPDGGLFAVRRHLWGSHGNSSFPEFFHNMDYFKYHNMRPPFTYATLIRWAILEAPERQRTLNEIYHWFTRMFAYFRNHPATWKNAIRHNLSLHKCFVRVESEKGAVWTVDEFEFRKKRSQRPNKCSNPCP	increases	increases			
